Here are results for one substance from doi:10.1101/2021.01.30.428938.

The target of experiment [1] is Theileria parva schizont antigen Tp2, full-length native, bacterially expressed with His-tag (Theileria parva (Muguga)). As to the kind of experiment: SEC-MALS.
The target is the same in experiment [2]. As to the kind of experiment: SEC.

“And” between values parts separate entries of the source, which are not always exact repeats. Equal values may be shown once.

On to “Theileria parva schizont antigen Tp2, full-length native, bacterially expressed with His-tag (natural protein)”, for which the stoichiometry N is 2 in experiment [1]; 4 and 2 in experiment [2].
